Experimental data taken from FireProtDB.
“And” between values parts separate entries of the source, which are not always exact repeats. Equal entries are not always repeated.

Settings: whole UniProt chain shown
[1] = Bacillus amyloliquefaciens, pH 5.8, Thermal, DSC, acetate 10 mM, reversible: yes
[2] = Bacillus amyloliquefaciens, pH 6.2, Thermal, DSC, PIPES 0.01 M, NaCl 0.05 M, reversible: yes(54%)
[3] = Bacillus amyloliquefaciens, pH 6.3, 25 °C, GdnSCN, CD, Sodium acetate 50 mM, reversible: yes
[4] = Bacillus amyloliquefaciens, pH 6.3, 25 °C, Thermal, Fluorescence, MES 50 mM, KCl, reversible: yes
[5] = Bacillus amyloliquefaciens, pH 6.3, 25 °C, Urea, CD, MES 50 mM, reversible: yes
[6] = Bacillus amyloliquefaciens, pH 6.3, 25 °C, Urea, Fluorescence, MES 19.3 mM, reversible: yes
[7] = Bacillus amyloliquefaciens, pH 6.3, 25 °C, Urea, Fluorescence, MES 50 mM, reversible: yes
[8] = Bacillus amyloliquefaciens, pH 6.3, Thermal, DSC, MES 50 mM, reversible: yes
[9] = Bacillus amyloliquefaciens, pH 8, 25 °C, Urea, CD, Tris-HCl 25 mM
[10] = Bacillus subtilis (strain 168), pH 7, Thermal, CD, Potassium phosphate 50 mM, reversible: yes
[11] = Bos taurus, pH 2, 35 °C, Urea, NMR, Unknown, reversible: no
[12] = Bos taurus, pH 2.2, 25 °C, GdnHCl, CD, Sodium cacodylate 50 mM, NaCl 50 mM
[13] = Bos taurus, pH 3, Thermal, DSC, Tris-HCl 10 mM
[14] = Bos taurus, pH 4.2, Thermal, DSC, Tris-HCl 10 mM
[15] = Bos taurus, pH 5.2, Thermal, DSC, Tris-HCl 10 mM
[16] = Bos taurus, pH 6.2, Thermal, DSC, citrate 10 mM
[17] = Bos taurus, pH 6.3, 25 °C, GdnHCl, CD, Sodium acetate 100 mM, CaCl2 2 mM, transition: 3
[18] = Bos taurus, pH 6.3, 25 °C, GdnHCl, CD, Sodium acetate 100 mM, CaCl2 2 mM
[19] = Bos taurus, pH 6.3, 25 °C, Thermal, CD, imidazole-HCl 40 mM
[20] = Bos taurus, pH 7, 4.5 °C, GdnHCl, CD, cacodylate 50 mM, NaCl 0.1 M

B1: wild type, B8YLY0 (protein)
chain: MKKVLMAFIICLSLILSVLAAPPSGAKAESVHNPVVLVHGISGASYNFFAIKNYLISQGWQSNKLYAIDFYDKTGNNLNNGPQLASYVDRVLKETGAKKVDIVAHSMGGANTLYYIKYLGGGNKIQNVVTLGGANGLVSSTALPGTDPNQKILYTSIYSLNDQIVINSLSRLQGARNIQLYGIGHIGLLSNSQVNGYIKEGLNGGGLNTN
With B1 the “denaturant midpoint (higher = more stable)” value (“denaturant midpoint” for short) (Bacillus subtilis, pH 0.8, 25 °C, GdnHCl, CD, KCl-HCl 20 mM, reversible: No) was 3 M, the “denaturant midpoint” value (Bacillus subtilis, pH 0.8, 25 °C, GdnHCl, Fluorescence, KCl-HCl 20 mM, reversible: No) was 2.6 M and the Tm (Bacillus subtilis, pH 0.8, Thermal, CD, KCl-HCl 20 mM, reversible: No) was 75 °C. For the same protein, the Tm (Bacillus subtilis, pH 4, Thermal, Fluorescence, Sodium acetate 50 mM, reversible: Yes) was 45 °C, the unfolding free energy (Bacillus subtilis, pH 5.8, 25 °C, Urea, Fluorescence, NaAc 20 mM, reversible: Yes) was 11.2 kcal/mol and the unfolding free energy (Bacillus subtilis, pH 5.8, 25 °C, Urea, NMR, NaAc 20 mM, reversible: Yes) was 9.56 kcal/mol. The Tm (Bacillus subtilis, pH 5.8, Thermal, DSC, NaAc 20 mM, reversible: No) was 53 °C, the Tm (Bacillus subtilis, pH 6, Thermal, CD, phosphate buffer 20 mM) was 54.6 °C and the “denaturant midpoint” value (Bacillus subtilis, pH 7, 25 °C, GdnHCl, CD, Sodium phosphate 20 mM, reversible: Yes) was 1 M. The “denaturant midpoint” value (Bacillus subtilis, pH 7, 25 °C, GdnHCl, Fluorescence, Sodium phosphate 20 mM, reversible: Yes) was 0.8 M, the unfolding free energy (Bacillus subtilis, pH 7, 25 °C, Urea, Fluorescence, Sodium acetate 50 mM, reversible: Yes) was 11.4 kcal/mol and the Tm (Bacillus subtilis, pH 7, Thermal, CD, Sodium phosphate 20 mM, reversible: No) was 47 °C. The unfolding free energy (Bacillus subtilis, pH 7.2, 25 °C, GdnHCl, CD, Sodium phosphate 50 mM, reversible: Yes) was 11.4 kcal/mol and 13.8 kcal/mol.

B2: Ribonuclease wild type, P00648 (protein)
chain: MMKMEGIALKKRLSWISVCLLVLVSAAGMLFSTAAKTETSSHKAHTEAQVINTFDGVADYLQTYHKLPDNYITKSEAQALGWVASKGNLADVAPGKSIGGDIFSNREGKLPGKSGRTWREADINYTSGFRNSDRILYSSDWLIYKTTDHYQTFTKIR
For B2, the Tm [1] was 54.3 °C, the “heat capacity change of unfolding” value [1] was 1.37 kcal/mol/K and the “unfolding enthalpy (calorimetric)” value [1] was 126 kcal/mol. For the same protein, the “unfolding enthalpy (van 't Hoff)” value [1] was 124 kcal/mol, the unfolding free energy (Bacillus amyloliquefaciens, pH 6, 25 °C, Thermal, CD, MES 50 mM, reversible: yes) was 10 kcal/mol and the Tm [2] was 54.8 °C. The “unfolding enthalpy (calorimetric)” value [2] was 128 kcal/mol, the denaturant m value [3] was 14.3 kcal/mol/M and the “denaturant midpoint” value [3] was 0.77 M. The unfolding free energy [3] was 11 kcal/mol, the unfolding free energy (Bacillus amyloliquefaciens, pH 6.3, 25 °C, Thermal, DSC, MES 50 mM, reversible: yes) was 8.52 kcal/mol and the “heat capacity change of unfolding” value [4] was 1.88 kcal/mol/K. The “unfolding enthalpy (van 't Hoff)” value [4] was 84.5 kcal/mol, the unfolding free energy [4] was 10.2 kcal/mol and the unfolding free energy (Bacillus amyloliquefaciens, pH 6.3, 25 °C, Thermal, Fluorescence, MES 50 mM) was 10.2 kcal/mol. For the same protein, the denaturant m value [5] was 2.02 kcal/mol/M, the “denaturant midpoint” value [5] was 4.53 M and the unfolding free energy [5] was 9.18 kcal/mol. For the same protein, the “denaturant midpoint” value [6] was 2.27 M, the unfolding free energy [6] was 10.5 kcal/mol and the denaturant m value [7] was 1.92 kcal/mol/M. The “denaturant midpoint” value [7] was 4.58 M, the unfolding free energy [7] was 8.79 kcal/mol and the unfolding free energy (Bacillus amyloliquefaciens, pH 6.3, 25 °C, Urea, Fluorescence, MES 1 M) was 8.9 kcal/mol. For the same protein, the Tm [8] was 51.5 °C, the “unfolding enthalpy (calorimetric)” value [8] was 127 kcal/mol and the “unfolding enthalpy (van 't Hoff)” value [8] was 126 kcal/mol. The denaturant m value [9] was 1.84 kcal/mol/M and the unfolding free energy [9] was 7.58 kcal/mol.

B3: Phosphocarrier protein HPr wild type, P08877 (protein)
chain: MAQKTFKVTADSGIHARPATVLVQTASKYDADVNLEYNGKTVNLKSIMGVMSLGIAKGAEITISASGADENDALNALEETMKSEGLGE
With B3 the “denaturant midpoint” value (Bacillus subtilis (strain 168), pH 7, 30 °C, Urea, CD, Potassium phosphate 50 mM, reversible: yes) was 3.93 M, the Tm [10] was 73.6 °C and 77.5 °C and the “unfolding enthalpy (van 't Hoff)” value [10] was 59 kcal/mol and 63 kcal/mol.

B4: Alpha-lactalbumin wild type, P00711 (protein)
chain: MMSFVSLLLVGILFHATQAEQLTKCEVFRELKDLKGYGGVSLPEWVCTTFHTSGYDTQAIVQNNDSTEYGLFQINNKIWCKDDQNPHSSNICNISCDKFLDDDLTDDIMCVKKILDKVGINYWLAHKALCSEKLDQWLCEKL
For B4, the denaturant m value [11] was 0.33 kcal/mol/M, the “denaturant midpoint” value [11] was 4.45 M and the unfolding free energy [11] was 1.46 kcal/mol. The denaturant m value [12] was 0.76 kcal/mol/M, the “denaturant midpoint” value [12] was 3.16 M and the unfolding free energy [12] was 2.41 kcal/mol. The Tm [13] was 29.6 °C, the “heat capacity change of unfolding” value [13] was 0.93 kcal/mol/K and the “unfolding enthalpy (calorimetric)” value [13] was 36.1 kcal/mol. For the same protein, the Tm [14] was 56.9 °C, the “heat capacity change of unfolding” value [14] was 1.17 kcal/mol/K and the “unfolding enthalpy (calorimetric)” value [14] was 64.5 kcal/mol. The Tm [15] was 62.8 °C, the “heat capacity change of unfolding” value [15] was 1.26 kcal/mol/K and the “unfolding enthalpy (calorimetric)” value [15] was 71.9 kcal/mol. For the same protein, the Tm [16] was 51.2 °C, the “heat capacity change of unfolding” value [16] was 1.61 kcal/mol/K and the “unfolding enthalpy (calorimetric)” value [16] was 59.1 kcal/mol. For the same protein, the “unfolding enthalpy (van 't Hoff)” value [16] was 61.5 kcal/mol, the denaturant m value [17] was 1.85 kcal/mol/M and the unfolding free energy [17] was 4.61 kcal/mol. For the same protein, the denaturant m value [18] was 2.6 kcal/mol/M, the unfolding free energy [18] was 6.21 kcal/mol and the “heat capacity change of unfolding” value [19] was 0.96 kcal/mol/K. The “unfolding enthalpy (van 't Hoff)” value [19] was 31.1 kcal/mol, the unfolding free energy (Bos taurus, pH 6.65, 25 °C, GdnHCl, CD, potassium phosphate 0.01-0.03 M, KCl 0.1 M, reversible: yes) was 6.5 kcal/mol and the “heat capacity change of unfolding” value (Bos taurus, pH 6.8, 25 °C, Thermal, CD, phosphate 10-20 mM, KCl 0.1 M) was 1.49 kcal/mol/K. The denaturant m value [20] was 2.27 kcal/mol/M, the unfolding free energy [20] was 3.66 kcal/mol and the denaturant m value (Bos taurus, pH 7, 25 °C, GdnHCl, CD, sodium cacodylate 50 mM, NaCl 50 mM, transition: 3) was 1.79 kcal/mol/M and 0.64 kcal/mol/M.
